In patent US20120219562A1 (AbbVie / Abbott, published 2012) one finds koff data, which are given here for 20 molecules.

Usually koff stands for the rate constant with which the complex falls apart. Lower therefore signals a long-lived complex.

In this test the target is T1, human interleukin 12 (human, UniProt P29459 23-219; P29460 23-328).
T1 construct: heterodimer of p35 and p40 linked by a disulfide bridge; also called hIL-12; IL-12
T1 sequence (looked up) 1: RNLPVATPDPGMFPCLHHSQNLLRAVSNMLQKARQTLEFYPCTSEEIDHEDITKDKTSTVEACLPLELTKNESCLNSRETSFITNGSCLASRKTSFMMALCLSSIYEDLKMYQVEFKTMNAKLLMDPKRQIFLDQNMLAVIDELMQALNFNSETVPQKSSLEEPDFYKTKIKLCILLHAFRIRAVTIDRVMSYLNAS
T1 sequence (looked up) 2: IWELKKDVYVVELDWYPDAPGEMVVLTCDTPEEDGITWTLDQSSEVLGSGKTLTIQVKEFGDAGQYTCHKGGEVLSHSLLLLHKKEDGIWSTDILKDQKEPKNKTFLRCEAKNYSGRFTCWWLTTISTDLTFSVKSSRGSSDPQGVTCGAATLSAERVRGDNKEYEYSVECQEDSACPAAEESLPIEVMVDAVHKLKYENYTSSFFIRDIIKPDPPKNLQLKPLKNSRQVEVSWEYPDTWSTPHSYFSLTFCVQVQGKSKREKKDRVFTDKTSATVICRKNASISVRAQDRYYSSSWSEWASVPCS
Kind of test: SPR (BIAcore). A general note: In SPR one partner is held on a chip, and binding of the other changes the refractive index at the surface.

B1: M2 A2 (antibody, V domains shown)
VH: QVQLVQSGGGVVQPGRSLRLSCAASGFTFSSYGMHWVRQAPGKGLEWVAFIRYDGSNKYYADSVKGRFTISRDNSKNTLYLQMKSLRAEDTAVYYCKTHGSHDNWGQGTMVTVSS
VL: SYVLTQPPSVSGTPGQRVTISCSGGRSNIGSNTVKWYQQLPGTAPKLLIYGNDQRPSGVPDRFSGSKSGTSASLAITGVQAEDEADYYCQSYDRGIHGSRVFGTGTKVTVLG
B1: the koff was found to be 0.04 s⁻¹.

B2: M2 D5 (antibody, V domains shown)
VH: QVQLVQSGGGVVQPGRSLRLSCAASGFTFSSYGMHWVRQAPGKGLEWVAFIRYDGSNKYYADSVKGRFTISRDNSKNTLYLQMKSLRAEDTAVYYCKTHGSHDNWGQGTMVTVSS
VL: SYVLTQPPSVSGTPGQRVTISCSGGRSNIGSNTVKWYQQLPGTAPKLLIYGNDQRPSGVPDRFSGSKSGTSASLAITGVQAEDEADYYCQSYDSSSTGSRVFGTGTKVTVLG
In turn, B2 registered a koff of 0.0518 s⁻¹.

B3: M2 C5 (antibody, V domains shown)
VH: QVQLVQSGGGVVQPGRSLRLSCAASGFTFSSYGMHWVRQAPGKGLEWVAFIRYDGSNKYYADSVKGRFTISRDNSKNTLYLQMKSLRAEDTAVYYCKTHGSHDNWGQGTMVTVSS
VL: SYVLTQPPSVSGTPGQRVTISCSGGRSNIGSNTVKWYQQLPGTAPKLLIYGNDQRPSGVPDRFSGSKSGTSASLAITGVQAEDEADYYCQSYDTALTGSRVFGTGTKVTVLG
Turning to B3, the koff is 0.0471 s⁻¹.

B4: A8 (antibody, V domains shown)
VH: QVQLVQSGGGVVQPGRSLRLSCAASGFTFSSYGMHWVRQAPGKGLEWVAFIRYDGSNKYYADSVKGRFTISRDNSKNTLYLQMKSLRAEDTAVYYCKTHGSHDNWGQGTMVTVSS
VL: SYVLTQPPSVSGTPGQRVTISCSGGRSNIGSNTVKWYQQLPGTAPKLLIYGNDQRPSGVPDRFSGSKSGTSASLAITGVQAEDEADYYCQSYDRGKSNKMLFGTGTKVTVL
For the molecule B4, the koff is 0.00237 s⁻¹.

B5: M2 B3 (antibody, V domains shown)
VH: QVQLVQSGGGVVQPGRSLRLSCAASGFTFSSYGMHWVRQAPGKGLEWVAFIRYDGSNKYYADSVKGRFTISRDNSKNTLYLQMKSLRAEDTAVYYCKTHGSHDNWGQGTMVTVSS
VL: SYVLTQPPSVSGTPGQRVTISCSGGRSNIGSNTVKWYQQLPGTAPKLLIYGNDQRPSGVPDRFSGSKSGTSASLAITGVQAEDEADYYCQSYDIGMTGSRVFGTGTKVTVLG
B5 returned a koff of 0.046 s⁻¹.

B6: M2 B1 (antibody, V domains shown)
VH: QVQLVQSGGGVVQPGRSLRLSCAASGFTFSSYGMHWVRQAPGKGLEWVAFIRYDGSNKYYADSVKGRFTISRDNSKNTLYLQMKSLRAEDTAVYYCKTHGSHDNWGQGTMVTVSS
VL: SYVLTQPPSVSGTPGQRVTISCSGGRSNIGSNTVKWYQQLPGTAPKLLIYGNDQRPSGVPDRFSGSKSGTSASLAITGVQAEDEADYYCQSYDSGLTGSRVFGTGTKVTVLG
For B6, the koff is 0.00797 s⁻¹.

B7: C2 (antibody, V domains shown)
VH: QVQLVQSGGGVVQPGRSLRLSCAASGFTFSSYGMHWVRQAPGKGLEWVAFIRYDGSNKYYADSVKGRFTISRDNSKNTLYLQMKSLRAEDTAVYYCKTHGSHDNWGQGTMVTVSS
VL: SYVLTQPPSVSGTPGQRVTISCSGGRSNIGSNTVKWYQQLPGTAPKLLIYGNDQRPSGVPDRFSGSKSGTSASLAITGVQAEDEADYYCQSYDRGLNPSATFGTGTKVTVL
Regarding B7, the koff turned out to be 0.00223 s⁻¹.

B8: M2 E1 (antibody, V domains shown)
VH: QVQLVQSGGGVVQPGRSLRLSCAASGFTFSSYGMHWVRQAPGKGLEWVAFIRYDGSNKYYADSVKGRFTISRDNSKNTLYLQMKSLRAEDTAVYYCKTHGSHDNWGQGTMVTVSS
VL: SYVLTQPPSVSGTPGQRVTISCSGGRSNIGSNTVKWYQQLPGTAPKLLIYGNDQRPSGVPDRFSGSKSGTSASLAITGVQAEDEADYYCQTYDKGFTGSSVFGTGTKVTVLG
Molecule B8 returned a koff of 0.0532 s⁻¹.

B9: M2 B6 (antibody, V domains shown)
VH: QVQLVQSGGGVVQPGRSLRLSCAASGFTFSSYGMHWVRQAPGKGLEWVAFIRYDGSNKYYADSVKGRFTISRDNSKNTLYLQMKSLRAEDTAVYYCKTHGSHDNWGQGTMVTVSS
VL: SYVLTQPPSVSGTPGQRVTISCSGGRSNIGSNTVKWYQQLPGTAPKLLIYGNDQRPSGVPDRFSGSKSGTSASLAITGVQAEDEADYYCQSYDRGLTASRVFGTGTKVTVL
Molecule B9 showed a koff of 0.0281 s⁻¹.

B10: M2 D1 (antibody, V domains shown)
VH: QVQLVQSGGGVVQPGRSLRLSCAASGFTFSSYGMHWVRQAPGKGLEWVAFIRYDGSNKYYADSVKGRFTISRDNSKNTLYLQMKSLRAEDTAVYYCKTHGSHDNWGQGTMVTVSS
VL: SYVLTQPPSVSGTPGQRVTISCSGGRSNIGSNTVKWYQQLPGTAPKLLIYGNDQRPSGVPDRFSGSKSGTSASLAITGVQAEDEADYYCQSYDIRFTGSRVFGTGTKVTVLG
B10 registered a koff of 0.0371 s⁻¹.

B11: M2 E6 (antibody, V domains shown)
VH: QVQLVQSGGGVVQPGRSLRLSCAASGFTFSSYGMHWVRQAPGKGLEWVAFIRYDGSNKYYADSVKGRFTISRDNSKNTLYLQMKSLRAEDTAVYYCKTHGSHDNWGQGTMVTVSS
VL: SYVLTQPPSVSGTPGQRVTISCSGGRSNIGSNTVKWYQQLPGTAPKLLIYGNDQRPSGVPDRFSGSKSGTSASLAITGVQAEDEADYYCQSYDTGFTKSRVFGTGTKVTVLG
B11: the koff came to 0.00977 s⁻¹.

B12: M2 B5 (antibody, V domains shown)
VH: QVQLVQSGGGVVQPGRSLRLSCAASGFTFSSYGMHWVRQAPGKGLEWVAFIRYDGSNKYYADSVKGRFTISRDNSKNTLYLQMKSLRAEDTAVYYCKTHGSHDNWGQGTMVTVSS
VL: SYVLTQPPSVSGTPGQRVTISCSGGRSNIGSNTVKWYQQLPGTAPKLLIYGNDQRPSGVPDRFSGSKSGTSASLAITGVQAEDEADYYCQSYDSGVTGSRVFGTGTKVTVLG
The molecule B12 yielded a koff of 0.00838 s⁻¹.

B13: M2 E2 (antibody, V domains shown)
VH: QVQLVQSGGGVVQPGRSLRLSCAASGFTFSSYGMHWVRQAPGKGLEWVAFIRYDGSNKYYADSVKGRFTISRDNSKNTLYLQMKSLRAEDTAVYYCKTHGSHDNWGQGTMVTVSS
VL: SYVLTQPPSVSGTPGQRVTISCSGGRSNIGSNTVKWYQQLPGTAPKLLIYGNDQRPSGVPDRFSGSKSGTSASLAITGVQAEDEADYYCQSYDNGFTGSRVFGTGTKVTVL
As for B13, the koff is 0.0477 s⁻¹.

B14: M2 D3 (antibody, V domains shown)
VH: QVQLVQSGGGVVQPGRSLRLSCAASGFTFSSYGMHWVRQAPGKGLEWVAFIRYDGSNKYYADSVKGRFTISRDNSKNTLYLQMKSLRAEDTAVYYCKTHGSHDNWGQGTMVTVSS
VL: SYVLTQPPSVSGTPGQRVTISCSGGRSNIGSNTVKWYQQLPGTAPKLLIYGNDQRPSGVPDRFSGSKSGTSASLAITGVQAEDEADYYCQSYDNRLTGSRVFGTGTKVTVLG
The molecule B14 gave a koff of 0.0333 s⁻¹.

B15: M2 H5 (antibody, V domains shown)
VH: QVQLVQSGGGVVQPGRSLRLSCAASGFTFSSYGMHWVRQAPGKGLEWVAFIRYDGSNKYYADSVKGRFTISRDNSKNTLYLQMKSLRAEDTAVYYCKTHGSHDNWGQGTMVTVSS
VL: SYVLTQPPSVSGTPGQRVTISCSGGRSNIGSNTVKWYQQLPGTAPKLLIYGNDQRPSGVPDRFSGSKSGTSASLAITGVQAEDEADYYCQSYDAGFTGSRVFGTGTKVTVLG
Molecule B15 came in with a koff of 0.0099 s⁻¹.

B16: M2 A5 (antibody, V domains shown)
VH: QVQLVQSGGGVVQPGRSLRLSCAASGFTFSSYGMHWVRQAPGKGLEWVAFIRYDGSNKYYADSVKGRFTISRDNSKNTLYLQMKSLRAEDTAVYYCKTHGSHDNWGQGTMVTVSS
VL: SYVLTQPPSVSGTPGQRVTISCSGGRSNIGSNTVKWYQQLPGTAPKLLIYGNDQRPSGVPDRFSGSKSGTSASLAITGVQAEDEADYYCQSYDIGSTGSRVFGTGTKVTVLG
In turn, B16 registered a koff of 0.0401 s⁻¹.

B17: M2 F1 (antibody, V domains shown)
VH: QVQLVQSGGGVVQPGRSLRLSCAASGFTFSSYGMHWVRQAPGKGLEWVAFIRYDGSNKYYADSVKGRFTISRDNSKNTLYLQMKSLRAEDTAVYYCKTHGSHDNWGQGTMVTVSS
VL: SYVLTQPPSVSGTPGQRVTISCSGGRSNIGSNTVKWYQQLPGTAPKLLIYGNDQRPSGVPDRFSGSKSGTSASLAITGVQAEDEADYYCQSYDSDVTGSRVFGTGTKVTVLG
B17: the koff was 0.0616 s⁻¹.

B18: M2 D4 (antibody, V domains shown)
VH: QVQLVQSGGGVVQPGRSLRLSCAASGFTFSSYGMHWVRQAPGKGLEWVAFIRYDGSNKYYADSVKGRFTISRDNSKNTLYLQMKSLRAEDTAVYYCKTHGSHDNWGQGTMVTVSS
VL: SYVLTQPPSVSGTPGQRVTISCSGGRSNIGSNTVKWYQQLPGTAPKLLIYGNDQRPSGVPDRFSGSKSGTSASLAITGVQAEDEADYYCQSYETSFTGSRVFGTGTKVTVLG
Molecule B18 came in with a koff of 0.0581 s⁻¹.

B19: M2 D6 (antibody, V domains shown)
VH: QVQLVQSGGGVVQPGRSLRLSCAASGFTFSSYGMHWVRQAPGKGLEWVAFIRYDGSNKYYADSVKGRFTISRDNSKNTLYLQMKSLRAEDTAVYYCKTHGSHDNWGQGTMVTVSS
VL: SYVLTQPPSVSGTPGQRVTISCSGGRSNIGSNTVKWYQQLPGTAPKLLIYGNDQRPSGVPDRFSGSKSGTSASLAITGVQAEDEADYYCQSYDSGFTASRVFGTGTKVTVLG
Molecule B19 yielded a koff of 0.0501 s⁻¹.

B20: M2 D2 (antibody, V domains shown)
VH: QVQLVQSGGGVVQPGRSLRLSCAASGFTFSSYGMHWVRQAPGKGLEWVAFIRYDGSNKYYADSVKGRFTISRDNSKNTLYLQMKSLRAEDTAVYYCKTHGSHDNWGQGTMVTVSS
VL: SYVLTQPPSVSGTPGQRVTISCSGGRSNIGSNTVKWYQQLPGTAPKLLIYGNDQRPSGVPDRFSGSKSGTSASLAITGVQAEDEADYYCQSYDIRSTGSRVFGTGTKVTVLG
Turning to B20, the koff is 0.0385 s⁻¹.
